Experiment [1] addresses T1, His-PP1γ (UniProt P36873 1-323).
T1 construct: PP1γ, catalytic subunit of protein phosphatase 1, gamma isoform; D1:p17 gives a molecular weight of 36965 Da for PP1; also called PP1g
The experiment in a line: ITC; peptide (approximately 450 µM, syringe) titrated into PP1γ (~35 µM, cell); 25°C; 50 mM sodium phosphate, 150 mM NaCl, 0.5 mM TCEP, pH 7.5; single-site model. As to conditions: both partners purified. (In general: In ITC the heat of successive injections is recorded.)
T1 sequence (P36873 whole entry, canonical isoform): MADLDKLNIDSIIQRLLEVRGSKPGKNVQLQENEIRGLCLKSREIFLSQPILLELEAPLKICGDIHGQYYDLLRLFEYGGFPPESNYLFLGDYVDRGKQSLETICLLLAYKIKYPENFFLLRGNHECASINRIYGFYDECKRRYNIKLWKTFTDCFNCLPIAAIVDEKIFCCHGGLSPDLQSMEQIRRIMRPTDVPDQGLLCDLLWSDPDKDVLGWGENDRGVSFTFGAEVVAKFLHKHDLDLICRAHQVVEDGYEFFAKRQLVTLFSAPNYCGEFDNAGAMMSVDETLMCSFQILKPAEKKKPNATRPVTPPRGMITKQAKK

In experiment [2] the target is His-PP1γ (UniProt P36873 1-323). Described as above. The conditions noted are these: both partners purified.
Target sequence in this assay (P36873 whole entry, canonical isoform): as above

Non-standard residues stand in square brackets, D forms with d. No end group written: not given here. pS = N[C@@H](COP(=O)(O)O)C(=O)O

A word on the Kd: it is the free concentration of one partner at which half of the binding sites on the other are occupied at equilibrium, for simple one-to-one binding. In the experiment with His-PP1γ [1], AKNSRVTFSEDDEIW [Nipp1 197-209 peptide AKNSRVTFSEDDEIW] yielded a Kd of 190 ± 10 nM.
Consider RRSPRI[pS]FFLEKENEW [Sororin 73-91 pS83 peptide RRSPRI(pS)FFLEKENEW], for which binding with His-PP1γ [2] was characterised by a dissociation constant (Kd) of 1360 ± 10 nM.

B1: Sororin 76-96 peptide PRRSPRISFFLEKENEPPGREW (peptide)
peptide: PRRSPRISFFLEKENEPPGREW
notes: Sororin (CDCA5) 76-96 by the label; also called CDCA5; source: synthetic peptide, bought: Peptide 2.0 Inc
As for B1, the affinity with His-PP1γ [1], expressed as Kd, was 2530 ± 110 nM.

B2: KNL1 1441-1455 peptide KLNSKRVSFKLPKDQW (peptide)
peptide: KLNSKRVSFKLPKDQW
notes: KNL1 (CASC5) 1441-1455 by the label; also called CASC5; source: synthetic peptide, bought: Peptide 2.0 Inc
In turn, B2 yielded a Kd with His-PP1γ [1] of 120 ± 10 nM.

Values taken from paper PMC10698503 (Molecular Systems Biology, 2023).
